Sequences and labels used below:
T1: CD40L over-expressed on Expi293 cells (UniProt P29965 1-261, limits assumed)
T1 construct: whole, on cells; also called cytokine over-expressing Expi293 cells
T1 sequence (looked up): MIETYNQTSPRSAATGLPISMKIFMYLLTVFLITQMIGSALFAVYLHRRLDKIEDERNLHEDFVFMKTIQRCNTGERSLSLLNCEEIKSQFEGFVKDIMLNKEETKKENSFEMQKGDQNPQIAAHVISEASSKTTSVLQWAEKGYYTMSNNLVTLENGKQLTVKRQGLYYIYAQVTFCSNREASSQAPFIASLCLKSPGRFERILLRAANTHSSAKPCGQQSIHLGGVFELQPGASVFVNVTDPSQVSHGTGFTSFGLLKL

B1: CD40L-173 (antibody, V domains shown)
VH: EVQLLESGGGLVQPGGSLRLSCAASGGYNFRDYMHWVRQAPGKGLEWVATISGGGINTYYPDSVKGRFTISRDNSKNTLYLQMNSLRAEDTAVYYCAKDLGQGFDYWGQGTLVTVSS
VL: DIQMTQSPSSLSASVGDRVTITCQSSQSVYSNNELSWYQQKPGKAPKLLIYGRNKRPSGVPSRFSGSGSGTDFTLTISSLQPEDFATYYCSQGTHVPPTFGQGTKVEIK
notes: IgG2
B2: CD40L-183 (antibody, V domains shown)
VH: EVQLLESGGGLVQPGGSLRLSCAASGGYNFRDYMHWVRQAPGKGLEWVSSIVSSGGLTLYADSVKGRFTISRDNSKNTLYLQMNSLRAEDTAVYYCAKDLGQGFDYWGQGTLVTVSS
VL: DIQMTQSPSSLSASVGDRVTITCTGDKLAEKYVSWYQQKPGKAPKLLIYQNDKRPSGVPSRFSGSGSGTDFTLTISSLQPEDFATYYCQQSYSRPYTFGQGTKVEIK
notes: IgG2
B3: CD40L-171 (antibody, V domains shown)
VH: EVQLLESGGGLVQPGGSLRLSCAASGFDFSDYEMSWVRQAPGKGLEWVSSITSEGGSTYYADSVKGRFTISRDNSKNTLYLQMNSLRAEDTAVYYCAKPDQFFDYWGQGTLVTVSS
VL: DIQMTQSPSSLSASVGDRVTITCRASSSVSYMHWYQQKPGKAPKLLIYQNDKRPSGVPSRFSGSGSGTDFTLTISSLQPEDFATYYCQQHYSPSHTFGQGTKVEIK
notes: IgG2
B4: CD40L-172 (antibody, V domains shown)
VH: EVQLLESGGGLVQPGGSLRLSCAASGFDFSDYEMSWVRQAPGKGLEWVSSITSEGGSTYYADSVKGRFTISRDNSKNTLYLQMNSLRAEDTAVYYCAKPDVLFDYWGQGTLVTVSS
VL: DIQMTQSPSSLSASVGDRVTITCKASQHVITHVTWYQQKPGKAPKLLIYGTSDLQSGVPSRFSGSGSGTDFTLTISSLQPEDFATYYCQQSNSWPYTFGQGTKVEIK
notes: IgG2
B5: CD40L-179 (antibody, V domains shown)
VH: EVQLLESGGGLVQPGGSLRLSCAASGFDFSDYEMSWVRQAPGKGLEWVSSITSEGGSTYYADSVKGRFTISRDNSKNTLYLQMNSLRAEDTAVYYCAKPDVLFDYWGQGTLVTVSS
VL: DIQMTQSPSSLSASVGDRVTITCRASQSILSYLNWYQQKPGKAPKLLIYGTSKLASGVPSRFSGSGSGTDFTLTISSLQPEDFATYYCQSYDNDFYGTVFGQGTKVEIK
notes: IgG2
B6: CD40L-174 (antibody, V domains shown)
VH: EVQLLESGGGLVQPGGSLRLSCAASGFDFSDYEMSWVRQAPGKGLEWVSSITSEGGSTYYADSVKGRFTISRDNSKNTLYLQMNSLRAEDTAVYYCAKPGRLFDYWGQGTLVTVSS
VL: DIQMTQSPSSLSASVGDRVTITCRASESVEYHGTSLMHWYQQKPGKAPKLLIYGRNKRPSGVPSRFSGSGSGTDFTLTISSLQPEDFATYYCQAWDRDTGVFGQGTKVEIK
notes: IgG2
B7: CD40L-177 (antibody, V domains shown)
VH: EVQLLESGGGLVQPGGSLRLSCAASGFTFASYEMTWVRQAPGKGLEWVSSITSEGGSTYYADSVKGRFTISRDNSKNTLYLQMNSLRAEDTAVYYCAKPDVLFDYWGQGTLVTVSS
VL: DIQMTQSPSSLSASVGDRVTITCRASQDVSSGVAWYQQKPGKAPKLLIYDASNLQSGVPSRFSGSGSGTDFTLTISSLQPEDFATYYCSQSTRVPPTFGQGTKVEIK
notes: IgG2
B8: CD40L-178 (antibody, V domains shown)
VH: EVQLLESGGGLVQPGGSLRLSCAASGFTFEDYQMGWVRQAPGKGLEWVSSITSEGGSTYYADSVKGRFTISRDNSKNTLYLQMNSLRAEDTAVYYCAKPGRDFDYWGQGTLVTVSS
VL: DIQMTQSPSSLSASVGDRVTITCRASQPIVRNLRWYQQKPGKAPKLLIYGASSLESGVPSRFSGSGSGTDFTLTISSLQPEDFATYYCLQNVANPATFGQGTKVEIK
notes: IgG2

The assay deals with T1, CD40L over-expressed on Expi293 cells. In words: flow cytometry, 100 nM antibody, CD40L-Expi293 vs parent Expi293 cells.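 Note: ratio is the mean fluorescence intensity on CD40L-overexpressing Expi293 cells divided by the mean fluorescence intensity on parental Expi293 cells.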 Background: Flow cytometry measures light scatter and fluorescence of single cells or particles in a stream.
Protocol: All incubations and washes were in buffer containing PBS+1% BSA. MFI Ratio is defined by the mean fluorescence intensity (MFI) of the cytokine over-expressing Expi293 cell over the Expi293 parent cell. […] EC50 was calculated in GraphPad Prism.
On to B1, for which the “100 nM FACS (MFI Ratio)” value came to 0.4 ratio. As for B2, the figure is 3.6 ratio; as for B3, 0.4 ratio. As for B4, the figure is 0.5 ratio; as for B5, 3.1 ratio; as for B6, 0.4 ratio. On to B7, for which the “100 nM FACS (MFI Ratio)” value turned out to be 8.9 ratio. As to B8, the “100 nM FACS (MFI Ratio)” value came out at 6.4 ratio.

These data come from patent US20230265179A1 (TWIST BIOSCIENCE, published 2023).
